# According to the supplement of paper PMC9170038:
# Test system: MS2 coat protein
# Experiment: apparent KD of MS2 coat protein; designed switch direction (-1 OFF switch, 1 ON switch): -1; higher = weaker reporter binding
# In short: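 Designed RNA switches with common flanks were transcribed on Illumina chips by stalled E. coli RNA polymerase and titrated with SNAP-549-labelled MS2 coat protein, from 0.7 or 1.5 nM doubling to 3 µM, in Tris-HCl pH 7.5 buffer with KCl, MgCl2, BSA, DTT, tRNA and Tween-20. Steps lasted 0.8–1.5 h (lowest) to 10–20 min (highest). Titrations ran without input, with 200 uM small-molecule ligand, or with an oligonucleotide input. Normalised cluster fluorescence was curve-fitted, and apparent KD is the per-design median over clusters.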
# [1] = Eterna round: R95, input ligand: FMN 200 uM
# [2] = Eterna round: R95, input ligand: microRNA oligo, concentration not stated
# [3] = Eterna round: R95, input ligand: none
# [4] = input ligand: microRNA oligo, concentration not stated
Sequence,apparent KD of MS2 coat protein [1],apparent KD of MS2 coat protein [2],apparent KD of MS2 coat protein [3],apparent KD of MS2 coat protein (input ligand: FMN 200 uM),apparent KD of MS2 coat protein [4],apparent KD of MS2 coat protein (input ligand: none)
UCAUGUUUAGAGGAUAUGAUUACUUUCGAGUAAUCAGAAGGCUAGACAUGAGGAUCACCCAUGUCAUAACAUGA [Exclusion 6 - B - 15:b] (puzzle: Exclusion 6),68.7 nM,71.8 nM,214 nM,,,
"UACAUGAGGAUCACCCAUGUUUUGUCGUGUAUGGUAUUUAUCUAGGAUAUCAAUUUAUUUAUGUAUGAGAAGGAGAAUAUUAAU [JMF's solution 23] (Eterna round: R96, puzzle: Exclusion NG 3)",,,,40.8 nM,29.8 nM,44.7 nM
"UUUAAUUUUUUUUUUUUACAAGCUUUUUGCUCGUCUUAUACAUGAGGAUCACCCAUGUGAGUGGGAAAUGAAUUAUC [JMF 100] (puzzle: Sensor v3, turn-off variant 2)",99 nM,218 nM,111 nM,,,
CAUGGAACGUAGGAUAUCUCGCAGCCCGGCCGCAGAGAAGGACGUACAUGAGGAUCACCCAUGUAUGAUCCAAA [Zareinon] (puzzle: Exclusion 6),32.2 nM,19.8 nM,26.2 nM,,,
"UUUAGUUCAGGAUAUGUAGAUUUUAACAUGAGGAUCACCCAUGUAGAUCCUGAAUUAACUACAGAAGGGAACAUUU [Exclusion 5: 2:a] (Eterna round: R96, puzzle: Exclusion 5)",,,,94.3 nM,20.2 nM,24.3 nM
"CUGAGCUGAGGAUAUACAUGAGGAUCACCCAUGUAAAGCAGCUUGCGUACAAGCAGAUGUAGAAGGCAGUUCGG [Mod of JL 17 - Jieux - Exclusion 3] (Eterna round: R97, puzzle: Exclusion 3)",,,,24.1 nM,,14.7 nM
"UACAUGAGGAUCACCCAUGUUUUGUCGUGUAUGGUAUUUAUCUAGGAUAUCAAUGUGUUUAUUUAUGAGAAGGAGAAUAUUAAU [JMF's solution 39] (Eterna round: R96, puzzle: Exclusion NG 3)",,,,40 nM,31.8 nM,35.4 nM
CAGGGUAGAGGAUAUACGUAGGUACAGAUCUGUGUGUUCCUACAUGAGGAUCACCCAUGUAGAAGGCUAGCCUG [LRO-Excl2-08] (puzzle: Exclusion 2),,77.9 nM,,,,
"GCACAUGCAGGAUAUGUAAAAUUUGACAUGAGGAUCACCCAUGUAGAUCCUGAAUUUCCUGCAGAAGGGCAUGUGC [Mat - Exclusion 5 - Eli Mod - D17] (Eterna round: R97, puzzle: Exclusion 5)",,,,345 nM,,98.8 nM
"GGUGAAGCAGGAUAUGUAUCGAUAUACAUGAGGAUCACCCAUGUCAUGUUUGAAUUGCAUAUAGAAGGGCUUCACC [Exclusion 5 (FMN-MS2 slide v.3)] (Eterna round: R97, puzzle: Exclusion 5)",,,,16.4 nM,,13.8 nM
GGUUAUUGCAAGGAUAUGCUUUUUUUUGAUAUUGCAGAAGGUGCAACAUGAGGAUCACCCAUGUUGGAUGGGUU [JR_E6_Sub019] (puzzle: Exclusion 6),,94.1 nM,,,,
"GCACGGUUGGUAGGAUAUCAUUGCGAUUAGCUAUGAGAAGGACCACAUGAGGAUCACCCAUGUCCUCUAAUUAGCCUACCGUGC [Eli exng1 - 015] (Eterna round: R96, puzzle: Exclusion NG 1)",,,,383 nM,109 nM,151 nM
"AACCUGAGGCUUUGCUUUAGGUGUACAUGAGGAUCACCCAUGUAGGAUAUGGUAGGCUUUGCUUACCAGAAGGACAUUGGCGUA [Mat - Exclusion NG 3 - Mod of JL - D39] (Eterna round: R96, puzzle: Exclusion NG 3)",,,,144 nM,66.4 nM,77.2 nM
UUCCUGUCAGGAUAUGACUAGAUGCACGAAAGUGUGUUUACUUAGAAGGGACAUGAGGAUCACCCAUGUAGUCC [Bring Us a Shrubbery-17] (puzzle: Exclusion 4),,31.3 nM,,,,
